Measurements taken from patent US20250263490A1 (VIB VZW, published 2025).

Legend:
[1] = biological target: T1, human cation-independent mannose-6-phosphate receptor, native, on cells (human, UniProt P11717 41-2491); assay: flow cytometry on HepG2 cells: FLAG3-tagged VHH 30 min on ice, M2 anti-Flag mAb, PE anti-mouse F(ab')2 [upper graph]
T1 construct: whole, on cells; also called native CI-M6PR; cell-surface hCI-M6PR
Description: (§1) Synthetic DNA fragments encoding VHHs were ordered (IDT, Leuven, Belgium) and subcloned into an E. coli expression vector under control of an IPTG-inducible lac promoter, in frame with N-terminal PelB signal peptide (which directs the recombinant proteins to the periplasmic compartment) and C-terminal FLAG3 and His6 tags. […] VHH proteins were purified from these clones by means of IMAC chromatography followed by desalting according to well established procedures¹⁰⁶. Cells used herein were recovered using cell dissociation non-enzymatic solution (Sigma Aldrich, cat. #C5914-100ML) and resuspended to a final concentration of 1,000,000 cells/mL in FACS buffer. Cells were incubated with different concentrations of purified FLAG3-tagged VHHs for 30 minutes on ice with shaking, followed by washing and incubation with mouse M2 anti-Flag mAb (Sigma Aldrich, cat. #F-1804) in FACS buffer for 30 min on ice with shaking, followed again by washing. […] Flow cytometry and analysis were done on an Attune NxT Flow Cytometer (Thermo Fisher Scientific).
Moreover, cross-reactivity to mouse CI-M6PR was analyzed, in view of the amino acid homology between mouse and human being overall about 80% identity, but for domain 1-3 of CI-M6PR just about 75% identity.

[2] = biological target: T2, recombinant human domain 1-3His6 of the cation-independent mannose-6-phosphate receptor (human, UniProt P11717 41-467); assay: BLI at pH 7.4, 2nd of 2 repeats; BLI, biotinylated hDom1-3His6 on streptavidin tips, pH 7.4, experiment 2
T2 construct: Biotinylated (NHS-PEG4-biotin) for BLI; Glycosylated; also called hDom1-3His6; hCI-M6PRD1-D3

[3] = biological target: T2, recombinant human domain 1-3His6 of the …; assay: BLI exp 2, dissoc pH not printed (between 6 and 5, presumably 5.5)
Protocol: For each of the 11 anti-CI-M6PR VHHs, a biolayer interferometry (BLI) experiment was performed in which the hDom₁₋₃His₆ was biotinylated and coupled to streptavidin biosensor tips. Afterwards, the tips were incubated with serially diluted VHHs during the association phase and dissociation was performed at pH 7.4. Similarly, dissociation was performed at pH 7.0, pH 6.0 and pH 5.0 as well after regeneration of the biosensor tips. […] The anti-CI-M6PR antibody (clone 2G11) and GBP were used as positive and negative controls, respectively.
Analysis of the binding kinetics was performed using an Octet Red96 (FortéBio) device with Streptavidin SA Biosensor tips (VWR, 733-2145). To this end, 1 mL of hCI-M6PR_D1-D3 (0.5 mg/mL in 50 mM MES, 150 mM NaCl, pH 6.5) was incubated at room temperature for 30 minutes with a two-fold molar excesses of EZ-Link™ NHS-PEG₄-Biotin (Thermo Fischer, A39259) and NaHCO₃ (100 mM, pH 8.3). Biotinylated hCIMPR_D1-D3 was purified using a Zeba spin desalting column (Thermo Fischer, 89890) and protein concentration was calculated by measuring the absorbance at 280 nm (extinction coefficient 50320 M¹ cm⁻¹). Two-fold biotin-labelled antigen was loaded on the tips (2.5 μg/mL) and subsequently dipped into a particular anti-CI-M6PR VHH-containing solution (ranging from 0-100 nM). […]

[4] = biological target: T2, recombinant human domain 1-3His6 of the …; assay: BLI, dissoc pH 6.5, mean of local fits
Protocol: (§2) FIGS. 58 & 59. […] BLI was performed on an Octet Red96 (FortéBio) instrument in kinetics buffer (0.2 M Na₂HPO₄, 0.1 M Na⁺ citrate, 0.01% bovine serum albumin, 0.002% Tween-20). Biotinylated human domain₁₋₃His₆ was immobilized on Streptavidin SA biosensors (Sartorius) to a signal of 0.6 nm. […] Between assays, biosensors were regenerated by three times 10 s exposure to regeneration buffer (10 mM glycine pH 3). The degree of association and dissociation was measured in δ nm over time (s).
(§3) After loading, the tips were incubated with VHHs serially diluted in pH 7.4 kinetic buffer during the association phase and dissociation was performed at pH 7.4, pH 6.5, pH 6.0, pH 5.5 and pH 5.0. All biosensor tips were then regenerated before analysis of the subsequent VHH. Table 13 summarizes the kinetic parameters retrieved after processing and curve fitting of the BLI measurements. When both association and dissociation were performed at pH 7.4, a global fit was performed according to the 1:1 binding model of which the resulting affinity constants (KD), association (kₒₙ) and dissociation rate constants (koff) are shown. For measurements with association at pH 7.4 and dissociation at pH 6.5, 6.0, 5.5 and 5.0, the depicted dissociation rate constants are an average of the parameters determined by local curve fitting of the dissociation of 200, 100 and 50 nM VHH.

[5] = biological target: T2, recombinant human domain 1-3His6 of the …; assay: BLI, global 1:1 fit, pH 7.4
Protocol: as §2, §3

[6] = biological target: T2, recombinant human domain 1-3His6 of the …; assay: BLI, dissoc pH 5, mean of local fits
Protocol: as §2, §3

[7] = biological target: T3, mouse cation-independent mannose-6-phosphate receptor on cells (mouse, UniProt Q07113 36-2483); assay: flow cytometry on fixed/permeabilised mouse bEND3 cells (sheet: Binding FACS in bEND3 (Fixed/Permeabilized); legend: internalisation detected upon permeabilisation) [upper graph]
T3 construct: whole, on cells; also called mouse CI-M6PR of bEND3 cells; mCI-M6PR
Description: as §1

[8] = biological target: T2, recombinant human domain 1-3His6 of the …; assay: BLI

T3 sequence (Q07113 36-2483): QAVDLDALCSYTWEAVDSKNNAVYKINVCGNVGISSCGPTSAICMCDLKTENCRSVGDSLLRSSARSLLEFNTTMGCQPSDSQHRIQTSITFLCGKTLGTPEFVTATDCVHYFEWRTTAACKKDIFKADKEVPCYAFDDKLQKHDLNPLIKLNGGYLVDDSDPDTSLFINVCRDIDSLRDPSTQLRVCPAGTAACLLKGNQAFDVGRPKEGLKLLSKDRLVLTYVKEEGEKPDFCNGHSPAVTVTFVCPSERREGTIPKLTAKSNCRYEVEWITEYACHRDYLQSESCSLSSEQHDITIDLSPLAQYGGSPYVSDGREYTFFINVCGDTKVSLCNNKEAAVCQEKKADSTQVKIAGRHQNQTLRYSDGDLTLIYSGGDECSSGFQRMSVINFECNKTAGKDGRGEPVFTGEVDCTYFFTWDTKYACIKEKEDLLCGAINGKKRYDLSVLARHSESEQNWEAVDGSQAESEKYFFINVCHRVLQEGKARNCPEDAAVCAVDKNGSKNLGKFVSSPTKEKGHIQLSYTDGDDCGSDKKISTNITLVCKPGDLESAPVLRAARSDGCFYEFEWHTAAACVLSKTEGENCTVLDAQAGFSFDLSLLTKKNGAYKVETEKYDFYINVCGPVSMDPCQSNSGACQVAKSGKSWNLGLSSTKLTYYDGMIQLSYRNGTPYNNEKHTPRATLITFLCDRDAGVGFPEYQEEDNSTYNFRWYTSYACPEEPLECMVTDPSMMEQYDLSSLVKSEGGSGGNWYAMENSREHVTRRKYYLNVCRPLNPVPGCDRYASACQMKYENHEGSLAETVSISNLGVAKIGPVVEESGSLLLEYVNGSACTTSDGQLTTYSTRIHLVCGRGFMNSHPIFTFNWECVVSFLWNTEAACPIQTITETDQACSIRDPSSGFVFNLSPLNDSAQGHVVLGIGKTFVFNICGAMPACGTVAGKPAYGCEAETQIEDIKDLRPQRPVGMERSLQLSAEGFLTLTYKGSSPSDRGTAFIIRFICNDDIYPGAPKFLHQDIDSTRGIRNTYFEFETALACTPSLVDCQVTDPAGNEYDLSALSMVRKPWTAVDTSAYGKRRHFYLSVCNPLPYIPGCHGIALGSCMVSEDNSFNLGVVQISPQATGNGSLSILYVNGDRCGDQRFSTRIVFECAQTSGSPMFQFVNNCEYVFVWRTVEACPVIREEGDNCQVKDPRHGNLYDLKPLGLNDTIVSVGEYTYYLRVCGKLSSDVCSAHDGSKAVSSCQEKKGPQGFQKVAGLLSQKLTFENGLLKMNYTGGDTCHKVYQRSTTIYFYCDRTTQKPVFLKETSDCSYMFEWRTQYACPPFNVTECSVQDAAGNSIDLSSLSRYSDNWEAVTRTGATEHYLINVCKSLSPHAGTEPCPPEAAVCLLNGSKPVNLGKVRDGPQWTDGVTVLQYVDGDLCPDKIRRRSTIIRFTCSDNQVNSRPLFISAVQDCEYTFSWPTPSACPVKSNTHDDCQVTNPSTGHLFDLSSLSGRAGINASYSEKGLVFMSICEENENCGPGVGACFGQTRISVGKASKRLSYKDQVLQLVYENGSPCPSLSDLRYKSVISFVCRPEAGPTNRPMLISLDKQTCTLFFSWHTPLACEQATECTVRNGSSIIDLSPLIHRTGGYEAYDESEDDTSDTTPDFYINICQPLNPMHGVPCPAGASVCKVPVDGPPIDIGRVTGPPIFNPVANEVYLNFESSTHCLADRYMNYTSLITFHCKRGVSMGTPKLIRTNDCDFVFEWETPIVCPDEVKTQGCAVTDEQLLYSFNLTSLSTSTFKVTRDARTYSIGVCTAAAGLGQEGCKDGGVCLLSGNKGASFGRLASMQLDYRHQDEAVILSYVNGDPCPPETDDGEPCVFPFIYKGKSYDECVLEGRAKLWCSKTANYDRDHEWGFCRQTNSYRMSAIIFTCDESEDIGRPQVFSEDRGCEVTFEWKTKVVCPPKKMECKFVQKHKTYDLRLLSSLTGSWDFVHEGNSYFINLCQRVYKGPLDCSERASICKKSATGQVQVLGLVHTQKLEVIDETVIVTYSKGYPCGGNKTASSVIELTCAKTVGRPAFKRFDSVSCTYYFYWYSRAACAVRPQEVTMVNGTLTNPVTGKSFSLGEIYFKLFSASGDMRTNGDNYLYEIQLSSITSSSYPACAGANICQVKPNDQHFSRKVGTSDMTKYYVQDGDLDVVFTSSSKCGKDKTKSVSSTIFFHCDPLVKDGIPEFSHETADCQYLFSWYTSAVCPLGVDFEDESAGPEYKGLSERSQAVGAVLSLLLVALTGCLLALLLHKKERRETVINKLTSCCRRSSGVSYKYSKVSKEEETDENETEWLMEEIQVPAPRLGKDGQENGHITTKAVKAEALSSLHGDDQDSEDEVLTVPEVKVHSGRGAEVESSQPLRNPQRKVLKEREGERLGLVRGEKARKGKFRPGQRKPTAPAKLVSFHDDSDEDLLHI

B1: anti-CI-M6PR VHH8 (VHH)
VHH: QVQLQESGGGLVQAGGSLRLSCEASGRTFNTYNWGWFRQAPGKEREFVAAIRWSSSKTSYADSVKGRFTISRDNAKNTIYLQMNSLKPEDTAVYYCAASIVDFTTNPSHFGSWGQGTQVTVSS
notes: His6-tagged (Pichia pastoris)
EC50 (read off the curve) [1]: ~2 nM

B2: anti-CI-M6PR VHH4 (VHH)
VHH: QVQLQESGGGLVQAGGSLRLSCAASGRTFSNYVMGWFRQAPGKEREFVGSISQGGKMTYYPDSVKGRFTISRDNAKNTMYLQMDGLKPEDTAVYYCAVSRGYPMVRVSEVDYWGQGTQVTVSS
notes: His6-tagged; made in Pichia pastoris
Kd [2]: 2.34 nM | kon [2]: 571000 M⁻¹ s⁻¹

B3: anti-CI-M6PR VHH5 (VHH)
VHH: QVQLQESGGGLVQAGGSLKLSCAAAGRTFSRLAMGWFRQAPGKEREFVAAISENGDSIHYSDSVKGRFAVSRDNAKNTVYLQMNSLKPEDTAIYYCAADRAAYYCSGSGCYPSRAPAAASYDYWGQGTQVTVSS
notes: His6-tagged; made in Pichia pastoris, later also in E. coli WK6
koff [3]: 0.00062 s⁻¹ | kon [3]: 2.1e+06 M⁻¹ s⁻¹

B4: anti-CI-M6PR VHH 1H11 (VHH)
VHH: QVQLQESGGGLVQPGGSLRLSCAASGIIFSDNRMDWYRQAPGKQREWVATLASYGWKTYADSVKDRFTISRDNAKNTVNLYMNSLQPEDTAVYYCNSGQYWGQGTQVTVSS
notes: made in E. coli WK6, His-tag purified
koff [4]: 0.0048 s⁻¹ | Kd [5]: 4.9 nM | koff [5]: 0.0025 s⁻¹ | kon [5]: 510000 M⁻¹ s⁻¹ | koff [6]: 0.0083 s⁻¹

B5: anti-CI-M6PR VHH7 (VHH)
VHH: QVQLQESGGGLVQPGGSLRLSCAASGIIFSDNRMDWYRQAPGKQREWVATLASYGWKTYADSVKGRFTISRDNTKNTVYLRMNSLKPEDTAVYYCKASSPVLNDIWGQGTQVTVSS
notes: His6-tagged (Pichia pastoris)
EC50 (read off the curve) [7]: ~50 nM | fold higher dissociation rate at pH 6.0 versus pH 7.4 [8]: 5 fold
